Reference: publication PMC3618350 (G3: Genes|Genomes|Genetics, 2013)
Where two headings read alike, the source gives them in different places.

What was measured:
Rad30 [1] = biological target: T1, Rad30 (S. cerevisiae, UniProt Q04049 1-632); assay: two-hybrid
T1 sequence (looked up): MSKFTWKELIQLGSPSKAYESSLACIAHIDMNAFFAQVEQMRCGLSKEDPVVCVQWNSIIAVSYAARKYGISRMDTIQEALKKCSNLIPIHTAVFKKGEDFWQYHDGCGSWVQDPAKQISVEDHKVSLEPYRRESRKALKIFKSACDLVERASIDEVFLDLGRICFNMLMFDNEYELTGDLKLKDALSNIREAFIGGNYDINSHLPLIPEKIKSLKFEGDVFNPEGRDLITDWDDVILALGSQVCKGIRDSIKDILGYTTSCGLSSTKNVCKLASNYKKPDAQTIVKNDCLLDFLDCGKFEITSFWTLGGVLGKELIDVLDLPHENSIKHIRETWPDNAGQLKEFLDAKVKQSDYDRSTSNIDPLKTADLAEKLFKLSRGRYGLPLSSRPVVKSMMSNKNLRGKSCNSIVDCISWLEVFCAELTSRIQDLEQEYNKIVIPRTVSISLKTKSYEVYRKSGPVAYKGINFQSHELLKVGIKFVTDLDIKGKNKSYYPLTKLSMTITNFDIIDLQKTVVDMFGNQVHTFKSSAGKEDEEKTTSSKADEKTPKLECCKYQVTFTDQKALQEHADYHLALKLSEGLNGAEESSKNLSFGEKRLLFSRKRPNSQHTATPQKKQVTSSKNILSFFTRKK

Rad30 [2] = biological target: T1, Rad30; assay: two-hybrid; remark: listed apart in the source

B1: Rev1 (enzyme, S. cerevisiae, UniProt P12689 1-985, looked up)
chain: MGEHGGLVDLLDSDLEYSINRETPDKNNCLSQQSVNDSHLTAKTGGLNARSFLSTLSDDSLIEYVNQLSQTNKNNSNPTAGTLRFTTKNISCDELHADLGGGEDSPIARSVIEIQESDSNGDDVKKNTVYTREAYFHEKAHGQTLQDQILKDQYKDQISSQSSKIFKNCVIYINGYTKPGRLQLHEMIVLHGGKFLHYLSSKKTVTHIVASNLPLKKRIEFANYKVVSPDWIVDSVKEARLLPWQNYSLTSKLDEQQKKLDNCKTVNSIPLPSETSLHKGSKCVGSALLPVEQQSPVNLNNLEAKRIVACDDPDFLTSYFAHSRLHHLSAWKANLKDKFLNENIHKYTKITDKDTYIIFHIDFDCFFATVAYLCRSSSFSACDFKRDPIVVCHGTKNSDIASCNYVARSYGIKNGMWVSQAEKMLPNGIKLISLPYTFEQFQLKSEAFYSTLKRLNIFNLILPISIDEAVCVRIIPDNIHNTNTLNARLCEEIRQEIFQGTNGCTVSIGCSDSLVLARLALKMAKPNGYNITFKSNLSEEFWSSFKLDDLPGVGHSTLSRLESTFDSPHSLNDLRKRYTLDALKASVGSKLGMKIHLALQGQDDEESLKILYDPKEVLQRKSLSIDINWGIRFKNITQVDLFIERGCQYLLEKLNEINKTTSQITLKLMRRCKDAPIEPPKYMGMGRCDSFSRSSRLGIPTNEFGIIATEMKSLYRTLGCPPMELRGLALQFNKLVDVGPDNNQLKLRLPFKTIVTNRAFEALPEDVKNDINNEFEKRNYKRKESGLTSNSLSSKKKGFAISRLEVNDLPSTMEEQFMNELPTQIRAEVRHDLRIQKKIQQTKLGNLQEKIKRREESLQNEKNHFMGQNSIFQPIKFQNLTRFKKICQLVKQWVAETLGDGGPHEKDVKLFVKYLIKLCDSNRVHLVLHLSNLISRELNLCAFLNQDHSGFQTWERILLNDIIPLLNRNKHTYQTVRKLDMDFEV
Rad30 [1]
  fold change in reporter activity over the highest negative control: 3.07 fold
Rad30 [2]
  fold change in reporter activity over the highest negative control: 1.47 fold
